Laboratory results as given in the supplement of paper PMC12764529.
± gives the half width of the 95% confidence interval.

How the values were obtained:
[1] = folding stability dG unfold (combined trypsin and chymotrypsin); higher = more stable
In short: (§1)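 Bayesian fitting of sequencing counts gave K50 for each design. Unfolding free energy followed by setting this against a sequence-predicted unfolded-state K50 and a shared folded-state K50, either per protease or with trypsin and chymotrypsin combined. The designs, under 80 residues and lacking cysteine, were digested in a PA-tagged cDNA display format at 11 threefold-diluted protease concentrations and without protease, and only those with AlphaFold2 dimer inter-PAE above 15 were kept.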

[2] = folding stability dG unfold from trypsin proteolysis; higher = more stable
In short: as §1

[3] = folding stability dG unfold from chymotrypsin proteolysis; higher = more stable
In short: as §1

Sequence | folding stability dG unfold [1] [kcal/mol] | folding stability dG unfold [2] [kcal/mol] | folding stability dG unfold [3] [kcal/mol]
SAGGAVELRIVVRRTRPDPLTGRPVEEELTLTVPVDLDPERGVSAAEVARALAAALPDEVREVRAEPGSAGG [r13_335_TrMRF] | 0.632 ± 0.12 | 0.51 ± 0.17 | 0.705 ± 0.08
SAGGAVLTTEDPEKISLTFYSPEGAVLGSEEIEVEPPEIVLTNVPPEEAAAIKKENPDVPISLNPALGSAGG [r13_235_JUSTAS] | 0.685 ± 0.071 | 0.956 ± 0.03 | 0.456 ± 0.029
SAGGDEIVDRIKQAFHNFGYPVRIDDISPPNGKIYIRISPAMRENMKPAIIEIPFPGIKDITIEMWPSAGGS [r8_318_TrROS] | 1.53 ± 0.17 | 1.25 ± 0.14 | 1.49 ± 0.14
SAGGDIKILSIQFMPPGWIMIVAEIPLENGEKWHISIMIRITPEARNHPPGQEYEFRIDINISIVPRSAGGS [r16_787_TrROS] | 4.5 ± 0.32 | 3.5 ± 0.26 | 4.91 ± 0.41
SAGGDLLKELARELGFNVEIERDPDDGTIRITIRPPEGHYVTITIKIDYDPENGKLKLEIDEIKVSPPSAGG [r13_936_TrROS] | 3.7 ± 0.17 | 3.68 ± 0.17 | 3.63 ± 0.14
SAGGDMYFVTVEIWRPREPDPDGEWKWEPIPITFPFDPDQAEDFAKEIINILQKDGYHVKIKVIPMPSAGGS [r8_10_TrROS] | 3.17 ± 0.43 | 2.56 ± 0.1 | 3.75 ± 0.28
SAGGDPPDIYVQIEHKNGKTRTIPFDNMSIENIAEELRDHNYDEVKISVFRMGKPIETFKIKIPPGDSAGGS [r16_700_TrROS] | 3.08 ± 0.52 | 3.7 ± 0.27 | 2.95 ± 0.15
SAGGDTFLMLHPHPVKDNGKDKPYYHIMVMKITEVEPDNGKPRLKMEMKMIHIPADDPDALKEAGIPISAGG [r13_670_TrROS] | 1.77 ± 0.16 | 1.81 ± 0.1 | 1.52 ± 0.21
SAGGDTIMIPIRGKGSLEQAKEWAKEIAREFYREGWKNIKISVWVYDKENGEPVYRKEAEIPIKPGDSAGGS [r8_33_TrROS] | 1.94 ± 0.22 | 1.63 ± 0.11 | 2.14 ± 0.18
SAGGDVKEFDSPEDLNKALPALKNGKEVHIRVEMRMPQPDPDGEPRQYPMEFWYTIKLKNGELEIEPISAGG [r13_835_TrROS] | 0.827 ± 0.07 | 0.593 ± 0.071 | 0.988 ± 0.091
SAGGDWRPVEFTIKILIPKGMTADELIEEIKEIARNLGLTIKPISVEVYPVPNKYYVEINVEIWIPPNSAGG [r13_351_TrROS] | 4.17 ± 0.33 | 2.57 ± 0.14 | 4.54 ± 0.19
SAGGDWRTITFNFEVDVPPGQTPEQLIEKAEEIVEELARMFPDVKIEVTDIEVDEDKVYIDVEIRVPDSAGG [r13_805_TrROS] | 3.22 ± 0.16 | 2.6 ± 0.17 | 3.45 ± 0.097
SAGGDYWVFKIEITHRNPNGEPEKWDIFIWFDPDDPDMPAKELADWIAKYLAPNNGYEVKIEEIYPVSAGGS [r8_101_TrROS] | 4.7 ± 0.31 | 3.25 ± 0.15 | 5 ± 0.1
SAGGEDELRPITPEELKALFDRLAAAHGLESEILEVEEPEDVVIVTARIRHGDTVLEVTVAFPVAKDPSAGG [r13_652_TrMRF] | 2.91 ± 0.15 | 2.65 ± 0.14 | 2.97 ± 0.1
SAGGEDGKWREQTFTIENPEDGKKAKIEIEYNPENGYASIEFPGNGKKIDVPFKSLEDILDAIKKIGISAGG [r13_439_TrROS] | 0.0961 ± 0.12 | -0.02 ± 0.074 | 0.0872 ± 0.16
SAGGEEEKVVLTPEEIERLLKELAEALGLEVTITEIEVEEDYVTITVEIKVDGKTLTLTLKLRIEPEPSAGG [r13_652_TrROS_Hall] | 5.14 ± 0.36 | 4 ± 0.42 | 5.23 ± 0.15
SAGGEEGKPKWVEMWIFIPKEILEDIKQGEPLTVKQIAQKIGFPPNIEVKIIEREGDYIYVRITIPVSAGGS [r16_679_TrROS] | 4.66 ± 0.27 | 4.53 ± 0.25 | 4.66 ± 0.11
